Reference: patent publication US20210292396A1

Legend:
Experiment in all cases: cell-based or functional assay
[1] = biological target: HIV Env of isolate AC10.29 (HIV)
[2] = biological target: HIV Env of isolate T280-5 (HIV)
[3] = biological target: HIV Env of isolate CNE5 (HIV)
[4] = biological target: HIV Env of isolate SF162.LS (HIV)
[5] = biological target: Env of HIV isolate TH023.6 (clade AE) (HIV)
[6] = biological target: Env of HIV isolate 3468.v1.c12 (clade AD) (HIV)
[7] = biological target: HIV Env of isolate MS208.A1 (HIV)
[8] = biological target: HIV Env of isolate CNE12 (HIV)
[9] = biological target: Env of HIV isolate CNE56 (clade AE) (HIV)
[10] = biological target: Env of HIV isolate 3301.v1.c24 (clade AC) (HIV)
[11] = biological target: Env of HIV isolate 263-8 (clade AG) (HIV)
[12] = biological target: Env of HIV isolate C1080.c3 (clade AE) (HIV)
[13] = biological target: HIV Env of isolate QH0692.42 (HIV)
[14] = biological target: HIV Env of isolate BI369.9A (HIV)
[15] = biological target: HIV Env of isolate CNE59 (HIV)
[16] = biological target: Env of HIV isolate R1166.C1 (clade AE) (HIV)
[17] = biological target: Env of HIV isolate 0077.v1.c16 (clade C) (HIV)
[18] = biological target: Env of HIV isolate X2088.c9 (clade G) (HIV)
[19] = biological target: Env of HIV isolate 6540.v4.c1 (clade AC) (HIV)
[20] = biological target: HIV Env of isolate CNE4 (HIV)
[21] = biological target: Env of HIV isolate A07412M1.vrc12 (clade D) (HIV)
[22] = biological target: HIV Env of isolate ZA012.29 (HIV)
[23] = biological target: HIV Env of isolate C1080.c3 (HIV)
[24] = biological target: HIV Env of isolate 6095.v1.c10 (HIV)
[25] = biological target: Env of HIV isolate 57128.vrc15 (clade D) (HIV)
[26] = biological target: Env of HIV isolate P1981.C5.3 (clade G) (HIV)
[27] = biological target: Env of HIV isolate 3337.v2.c6 (clade CD) (HIV)
[28] = biological target: HIV Env of isolate T251-18 (HIV)
[29] = biological target: HIV Env of isolate Q168.a2 (HIV)
[30] = biological target: Env of HIV isolate 3168.v4.c10 (clade C) (HIV)
[31] = biological target: Env of HIV isolate ZM214.15 (clade C) (HIV)
[32] = biological target: HIV Env of isolate CNE7 (HIV)
[33] = biological target: Env of HIV isolate 3718.v3.c11 (clade A) (HIV)
[34] = biological target: HIV Env of isolate 928-28 (HIV)
[35] = biological target: HIV Env of isolate P0402.c2.11 (HIV)
[36] = biological target: Env of HIV isolate BR025.9 (clade C) (HIV)
[37] = biological target: HIV Env of isolate 3337.v2.c6 (HIV)
[38] = biological target: Env of HIV isolate ZM53.12 (clade C) (HIV)
[39] = biological target: HIV Env of isolate 3168.v4.c10 (HIV)
[40] = biological target: Env of HIV isolate BG505.W6M.C2 (clade A) (HIV)
[41] = biological target: Env of HIV isolate TH976.17 (clade AE) (HIV)
[42] = biological target: Env of HIV isolate JRCSF.JB (clade B) (HIV)
[43] = biological target: Env of HIV isolate CNE40 (clade BC) (HIV)
[44] = biological target: HIV Env of isolate CNE19 (HIV)
[45] = biological target: Env of HIV isolate TRJO.58 (clade B) (HIV)
[46] = biological target: Env of HIV isolate 25925-2.22 (clade C) (HIV)
[47] = biological target: Env of HIV isolate 3988.25 (clade B) (HIV)
[48] = biological target: HIV Env of isolate X2131.C1.B5 (HIV)
[49] = biological target: HIV Env of isolate REJO.67 (HIV)
[50] = biological target: HIV Env of isolate 0921.v2.c14 (HIV)
[51] = biological target: Env of HIV isolate 96ZM651.02 (clade C) (HIV)
[52] = biological target: Env of HIV isolate AC10.29 (clade B) (HIV)
[53] = biological target: Env of HIV isolate BaL.26 (clade B) (HIV)

Substance PGT121 (antibody) has an IC80 [1] of 0.149 µg/mL, an IC80 [2] of 0.038 µg/mL and an IC80 [3] of over 50 µg/mL. It also gave an IC80 [4] of 0.021 µg/mL, an IC50, pseudovirus neutralization [5] of over 50 µg/mL and an IC50, pseudovirus neutralization [6] of 0.0763 µg/mL. The IC80 [7] was over 50 µg/mL, the IC80 [8] was 0.0347 µg/mL and the IC50, pseudovirus neutralization [9] was over 50 µg/mL. The IC50, pseudovirus neutralization [10] was 0.0217 µg/mL, the IC50, pseudovirus neutralization [11] was 0.484 µg/mL and the IC50, pseudovirus neutralization [12] was over 50 µg/mL. It also gave an IC80 [13] of 5.8 µg/mL, an IC80 [14] of 0.085 µg/mL and an IC80 [15] of over 50 µg/mL. For the same substance, the IC50, pseudovirus neutralization [16] was over 50 µg/mL, the IC50, pseudovirus neutralization [17] was over 50 µg/mL and the IC50, pseudovirus neutralization [18] was 0.00633 µg/mL. The IC50, pseudovirus neutralization [19] was over 50 µg/mL, the IC80 [20] was 25.3 µg/mL and the IC50, pseudovirus neutralization [21] was 0.042 µg/mL. The IC80, pseudovirus neutralization [22] was 0.0347 µg/mL, the IC80 [23] was over 50 µg/mL and the IC80 [24] was over 50 µg/mL. The IC50, pseudovirus neutralization [25] was 1.27 µg/mL, the IC50, pseudovirus neutralization [26] was 0.007 µg/mL and the IC50, pseudovirus neutralization [27] was 1.39 µg/mL. It also gave an IC80 [28] of 23.2 µg/mL, an IC80 [29] of over 50 µg/mL and an IC50, pseudovirus neutralization [30] of 0.446 µg/mL. It also gave an IC50, pseudovirus neutralization [31] of 0.392 µg/mL, an IC80, pseudovirus neutralization [32] of 0.121 µg/mL and an IC50, pseudovirus neutralization [33] of 0.559 µg/mL. The IC80 [34] was 29.9 µg/mL, the IC80, pseudovirus neutralization [35] was 0.0297 µg/mL and the IC50, pseudovirus neutralization [36] was 0.00967 µg/mL. For the same substance, the IC80, pseudovirus neutralization [37] was over 50 µg/mL, the IC50, pseudovirus neutralization [38] was 0.00267 µg/mL and the IC80, pseudovirus neutralization [39] was 1.43 µg/mL. It also gave an IC50, pseudovirus neutralization [40] of 0.0513 µg/mL, an IC50, pseudovirus neutralization [41] of over 50 µg/mL and an IC50, pseudovirus neutralization [42] of 0.0563 µg/mL. For the same substance, the IC50, pseudovirus neutralization [43] was 0.281 µg/mL, the IC80, pseudovirus neutralization [44] was 0.041 µg/mL and the IC50, pseudovirus neutralization [45] was 1.63 µg/mL. The IC50, pseudovirus neutralization [46] was 0.045 µg/mL, the IC50, pseudovirus neutralization [47] was 0.0127 µg/mL and the IC80, pseudovirus neutralization [48] was 0.036 µg/mL. It also gave an IC80 [49] of over 50 µg/mL, an IC80, pseudovirus neutralization [50] of over 50 µg/mL and an IC50, pseudovirus neutralization [51] of 0.0213 µg/mL. For the same substance, the IC50, pseudovirus neutralization [52] was 0.067 µg/mL and the IC50, pseudovirus neutralization [53] was 0.0227 µg/mL.
